Numbering of substitutions follows the chain as printed. Several values for one entry are separate records, joined by “and”; a condition that tells them apart may be missing. Equal values may be shown once.

We go through 6 molecules from US20260166139A1 (AKESO BIOPHARMA, published 2026).

Assay [1] has as its target T1, CTLA4-mFc.
T1 construct: also called CTLA4ECD-mFc fusion protein; CTLA4 antigen
As to the kind of experiment: competitive ELISA, competitor B7-1. The procedure: (§1) After incubation at 37° C. for 40 minutes, the enzyme conjugated secondary antibody was added. After incubation at 37° C. for 30 minutes, the absorbance at 450 nm was detected on an ELISA plate reader.
On the technique in general: An ELISA detects its analyte on a solid surface through an enzyme-linked reagent.
Target sequence in this assay (chain, as listed by the source limits assumed): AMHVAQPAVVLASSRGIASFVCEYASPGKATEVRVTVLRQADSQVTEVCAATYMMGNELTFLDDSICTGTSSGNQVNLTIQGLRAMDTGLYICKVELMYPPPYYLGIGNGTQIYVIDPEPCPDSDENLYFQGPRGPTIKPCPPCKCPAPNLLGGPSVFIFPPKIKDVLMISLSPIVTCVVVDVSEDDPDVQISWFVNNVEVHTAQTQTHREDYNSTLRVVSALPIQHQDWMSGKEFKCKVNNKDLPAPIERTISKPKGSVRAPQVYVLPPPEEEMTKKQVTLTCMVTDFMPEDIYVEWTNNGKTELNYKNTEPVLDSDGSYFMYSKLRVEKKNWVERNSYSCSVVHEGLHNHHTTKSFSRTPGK

The target of assay [2] is T1, CTLA4-mFc. In words: competitive ELISA, competitor B7-2. The procedure:
as §1
Target sequence in this assay (chain, as listed by the source limits assumed): as above

Assay [3] addresses T1, CTLA4-mFc. In words: competitive ELISA, CTLA4-mFc coated, competitor B7/2-His; antibody 3 µg/ml diluted 1:27. The procedure: as §1
The target in assay [4] is T2, CTLA4 antigen on the surface of 293F-CTLA4 host cells (UniProt P16410 36-223, limits assumed).
T2 construct: whole, on cells
T2 sequence (looked up): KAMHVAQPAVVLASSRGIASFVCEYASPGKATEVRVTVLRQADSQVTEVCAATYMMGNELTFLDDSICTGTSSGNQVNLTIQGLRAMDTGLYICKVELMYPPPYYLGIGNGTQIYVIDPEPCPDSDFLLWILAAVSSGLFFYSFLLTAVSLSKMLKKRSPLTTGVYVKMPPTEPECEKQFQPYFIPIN
As to the kind of experiment: flow cytometry, 293F-CTLA4 cells. How it is done:
(§2) After addition of 300 μL PBS, the fluorescent signal was detected using the FITC channel on the flow cytometer.
In general terms: Flow cytometry measures light scatter and fluorescence of single cells or particles in a stream.

For assay [5], the target named is T3, human CTLA4 (human, UniProt P16410 36-161, limits assumed).
T3 construct: also called human CTLA4 antigen; CTLA4 protein
T3 sequence (looked up): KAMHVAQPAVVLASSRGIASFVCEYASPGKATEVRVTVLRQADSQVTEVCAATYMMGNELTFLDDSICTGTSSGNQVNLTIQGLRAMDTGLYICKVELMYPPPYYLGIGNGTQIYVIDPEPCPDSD
As to the kind of experiment: ELISA on coated CTLA4, source Human. The procedure:
(§3) The ELISA plate was coated with CTLA4 at 4° C. over night. […] The enzyme conjugated secondary antibody was added for incubation for 30 min. Then, the absorbance at 450 nm was determined on an ELISA plate reader.

In assay [6] the target is T4, monkey CTLA4-hFc (monkey).
T4 construct: also called monkey CTLA4 antigen
As to the kind of experiment: ELISA on coated CTLA4, source Monkey. How it is done: as §3

Assay [7] deals with T2, CTLA4 antigen on the surface of …. In words: flow cytometry, 293F-CTLA4 cells; antibody 1 nM. How it is done: as §2
Assay [8] shares this target. In words: flow cytometry, 293F-CTLA4 cells; antibody 5 nM. How it is done: as §2
For assay [9] the target is unchanged. As to the kind of experiment: flow cytometry, 293F-CTLA4 cells; antibody 10 nM. The procedure:
as §2

The target is the same in assay [10]. In words: flow cytometry, 293F-CTLA4 cells; antibody 25 nM. The procedure:
as §2

The target is the same in assay [11]. In words: flow cytometry, 293F-CTLA4 cells; antibody 0.1 nM. The procedure: as §2
Assay [12] has the same target. As to the kind of experiment: flow cytometry, 293F-CTLA4 cells; antibody 0.01 nM. The procedure: as §2
The target is the same in assay [13]. As to the kind of experiment: flow cytometry, 293F-CTLA4 cells; antibody 0.001 nM. How it is done: as §2
In assay [14] the target is T5, CTLA4 antigen (NCBI Gene ID: 1493) obtained by TEV protease cleavage of CTLA4-mFc (Homo sapiens (Human), UniProt P16410 37-161).
T5 construct: also called the antigen CTLA4
T5 sequence: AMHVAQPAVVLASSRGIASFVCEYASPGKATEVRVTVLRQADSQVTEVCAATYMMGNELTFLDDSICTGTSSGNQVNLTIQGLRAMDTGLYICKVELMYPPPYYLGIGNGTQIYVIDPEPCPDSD
As to the kind of experiment: BLI (Fortebio), antibody on AR2G sensor, CTLA4 in solution. How it is done: 2. […] After equilibration in PBST, the CTLA4 antigen was added for binding. […] Dissociation occurred in PBST.
(In general: In BLI a coated tip is dipped into the sample, and binding shifts an interference pattern.)

Assay [15] deals with T4, monkey CTLA4-hFc. In words: ELISA, coat monkey CTLA4-hFc 0.25 ug/ml; antibody 0 (blank). How it is done:
as §3

Assay [16] has as its target T3, human CTLA4. In words: ELISA, coat human CTLA4 0.5 ug/ml; antibody 0 (blank). The procedure: as §3
In assay [17] the target is T1, CTLA4-mFc. In words: competitive ELISA, CTLA4-mFc coated, competitor B7/2-His; antibody 1 µg/ml. How it is done:
as §1

Assay [18] deals with T1, CTLA4-mFc. In words: competitive ELISA, CTLA4-mFc coated, competitor B7/2-His; antibody 1 µg/ml diluted 1:3. How it is done:
as §1

Assay [19] has as its target T1, CTLA4-mFc. In words: competitive ELISA, B7/1-hFc coated (competitor), CTLA4-mFc added; antibody 0 (no antibody). How it is done:
as §1

The target in assay [20] is T1, CTLA4-mFc. As to the kind of experiment: competitive ELISA, B7/1-hFc coated (competitor), CTLA4-mFc added; antibody 5 µg/ml diluted 1:9. How it is done: as §1
For assay [21], the target named is T1, CTLA4-mFc. As to the kind of experiment: competitive ELISA, B7/1-hFc coated (competitor), CTLA4-mFc added; antibody 5 µg/ml. How it is done:
as §1

For assay [22], the target named is T1, CTLA4-mFc. As to the kind of experiment: competitive ELISA, CTLA4-mFc coated, competitor B7/2-His; antibody 1 µg/ml diluted 1:81. How it is done: as §1
The target of assay [23] is T1, CTLA4-mFc. In words: competitive ELISA, B7/1-hFc coated (competitor), CTLA4-mFc added; antibody 5 µg/ml diluted 1:3. The procedure:
as §1

In assay [24] the target is T1, CTLA4-mFc. In words: competitive ELISA, competitor B7-2; control run with 8D2.
Assay [25] concerns the target T1, CTLA4-mFc. As to the kind of experiment: competitive ELISA, competitor B7-1; control run with 8D2H1L1.
Assay [26] addresses T1, CTLA4-mFc. As to the kind of experiment: competitive ELISA, competitor B7-1; control run with 8D2H2L2.
The target in assay [27] is T1, CTLA4-mFc. In words: competitive ELISA, competitor B7-1; control run with 8D2H3L3.
For assay [28], the target named is T1, CTLA4-mFc. As to the kind of experiment: competitive ELISA, competitor B7-2; control run with 8D2(Re).
The target in assay [29] is T1, CTLA4-mFc. As to the kind of experiment: competitive ELISA, competitor B7-2; control run with 8D2H1L1.
Assay [30] concerns the target T1, CTLA4-mFc. As to the kind of experiment: competitive ELISA, competitor B7-2; control run with 8D2H2L2.
In assay [31] the target is T1, CTLA4-mFc. In words: competitive ELISA, competitor B7-2; control run with 8D2H3L3.
Assay [32] addresses T1, CTLA4-mFc. As to the kind of experiment: competitive ELISA, competitor B7-1; control run with 8D2H2L15.
The target of assay [33] is T1, CTLA4-mFc. In words: competitive ELISA, competitor B7-1; control run with 8D2H2L17.
In assay [34] the target is T1, CTLA4-mFc. As to the kind of experiment: competitive ELISA, competitor B7-2; control run with 8D2H2L15.
For assay [35], the target named is T1, CTLA4-mFc. In words: competitive ELISA, competitor B7-2; control run with 8D2H2L17.

B1: monoclonal antibody 8D2 (antibody, V domains shown)
VH: EVKLDETGGGLVQPGRPMKLSCVASGFTFSDNWMNWVRQSPEKGLEWLAQIRNKPYNYETYYSDSVKGRFTISRDDSKSSVYLQMNNLRGEDMGIYYCTAQFAYWGQGTLVTVSA
VL: DIQMTQSPASLSASVGETVTITCGTSENIYGGLNWYQRKQGKSPQLLIFGATNLADGMSSRFSGSGSGRQYSLKISSLHPDDVATYYCQNVLRSPFTFGSGTKLEI
notes: Mouse antibody purified from hybridoma supernatant; also called mAb 8D2; antibody secreted by the CTLA4-8D2 hybridoma cell line LT001
On to B1, for which the EC50 with CTLA4-mFc [1] was 0.44 nM; with CTLA4-mFc [2] it was 0.208 nM. Besides, in the assay with CTLA4-mFc [3], the “absorbance at 450 nm” value worked out at 0.675.

B2: humanized antibody 8D2H2L2 (antibody, V domains shown)
VH: EVQLVESGGGLVQPGGSMRLSCAASGFTFSDNWMNWVRQAPGKGLEWLAQIRNKPYNYETYYSASVKGRFTISRDDSKNSVYLQMNSLKTEDTGVYYCTAQFAYWGQGTLVTVSS
VL: DIQMTQSPSSLSASVGDRVTITCRTSENIYGGLNWYQRKPGKSPKLLIYGATNLASGVSSRFSGSGSGTDYTLTISSLQPEDVATYYCQNVLRSPFTFGSGTKLEIK
notes: also called 8D2H2L2(20150327); 8D2H2L2(20140422)
B2: the EC50 in assay [4] is 4.37 nM; in the assay with human CTLA4 [5], 0.12 nM and 0.082 nM and 0.118 nM; in the assay with monkey CTLA4-hFc [6], 0.227 nM. For the same molecule, the fluorescence intensity in [7] amounted to 625; in assay [8], 972; in [9], 1160; in [10] it was 1130; in [11], 124; in assay [12], 32.5. The fluorescence intensity in [13] is 10.8. For the same molecule, in [14], the Kd stood at 0.955 nM. Further, the koff in [14] was found to be 0.000388 s⁻¹. Besides, the kon in assay [14] was determined as 407000 M⁻¹ s⁻¹. In addition, the “absorbance at 450 nm” value with monkey CTLA4-hFc [15] was 0.048.

B3: humanized antibody 8D2H1L1 (antibody, V domains shown)
VH: B2 VH with A64D
VL: B2 VL with P40Q, V58M, T74K, Q79H, E81D
With B3, the response in assay [4] was half-maximal at 5.06 nM (EC50). The fluorescence intensity in assay [7] is 103; in assay [8] it was 559; in assay [9] it was 944; in [10], 1170; in assay [11], 21.2; in assay [12], 10.8. In assay [13], this molecule returned a fluorescence intensity of 10.8. For the same molecule, the “absorbance at 450 nm” value in the assay with human CTLA4 [16] turned out to be 0.067. The same molecule yielded a Kd in assay [14] of 0.608 nM. This molecule gave a koff in assay [14] of 0.000207 s⁻¹. Also, in [14], the kon amounted to 340000 M⁻¹ s⁻¹.

B4: humanized antibody 8D2H2L17 (antibody, V domains shown)
VH: B2 VH
VL: B2 VL with R93S, P95R, F96P, T97G
With B4, the EC50 with CTLA4-mFc [1] was 1.79 nM; with CTLA4-mFc [2], 0.296 nM. Moreover, the “absorbance at 450 nm” value with CTLA4-mFc [17] was 0.05; with CTLA4-mFc [18] it was 0.05; in the assay with CTLA4-mFc [19], 1.18; with CTLA4-mFc [20] it was 0.08.

B5: humanized antibody 8D2H2L15 (antibody, V domains shown)
VH: B2 VH
VL: B2 VL with R93S, S94R, P95H, F96P, T97G
On to B5, for which the EC50 with CTLA4-mFc [1] was 1.97 nM; with CTLA4-mFc [2] it was 0.227 nM. Also, the “absorbance at 450 nm” value came to 0.05 in the assay with CTLA4-mFc [17]; 0.07 with CTLA4-mFc [21]; 0.05 with CTLA4-mFc [18]; 0.75 in the assay with CTLA4-mFc [22]; 0.07 in the assay with CTLA4-mFc [23].

B6: control antibody 10D1 (antibody, V domains shown)
VH: QVQLVESGGGVVQPGRSLRLSCAASGFTFSSYTMHWVRQAPGKGLEWVTFISYDGNNKYYADSVKGRFTISRDNSKNTLYLQMNSLRAEDTAIYYCARTGWLGPFDYWGQGTLVTVSS
VL: not shown
As to B6, the EC50 was 0.464 nM with CTLA4-mFc [24]; 1.91 nM with CTLA4-mFc [25]; 5.15 nM with CTLA4-mFc [26]; 5.15 nM with CTLA4-mFc [27]; 0.464 nM with CTLA4-mFc [28]; 0.464 nM in the assay with CTLA4-mFc [29]. The EC50 is 2.06 nM with CTLA4-mFc [30]; 2.06 nM in the assay with CTLA4-mFc [31]; 4.59 nM with CTLA4-mFc [32]; 4.59 nM with CTLA4-mFc [33]; 0.629 nM with CTLA4-mFc [34]; 0.629 nM in the assay with CTLA4-mFc [35]. The “absorbance at 450 nm” value in the assay with CTLA4-mFc [17] was 0.05; in the assay with CTLA4-mFc [18], 0.07.

What is called EC50 is the concentration that produces a half-maximal response. One may read the Kd as the equilibrium constant for the complex coming apart. The term koff denotes the first-order rate constant of dissociation. The term kon denotes the rate constant with which the complex forms.
